Measurements reported in PMC4472530 (2016).
Positions count from the first letter of the chain named.

Molecular target: T1, RLC-depleted cardiac beta-myosin (myosin heavy chain) (Sus scrofa, UniProt P79293)
T1 chain: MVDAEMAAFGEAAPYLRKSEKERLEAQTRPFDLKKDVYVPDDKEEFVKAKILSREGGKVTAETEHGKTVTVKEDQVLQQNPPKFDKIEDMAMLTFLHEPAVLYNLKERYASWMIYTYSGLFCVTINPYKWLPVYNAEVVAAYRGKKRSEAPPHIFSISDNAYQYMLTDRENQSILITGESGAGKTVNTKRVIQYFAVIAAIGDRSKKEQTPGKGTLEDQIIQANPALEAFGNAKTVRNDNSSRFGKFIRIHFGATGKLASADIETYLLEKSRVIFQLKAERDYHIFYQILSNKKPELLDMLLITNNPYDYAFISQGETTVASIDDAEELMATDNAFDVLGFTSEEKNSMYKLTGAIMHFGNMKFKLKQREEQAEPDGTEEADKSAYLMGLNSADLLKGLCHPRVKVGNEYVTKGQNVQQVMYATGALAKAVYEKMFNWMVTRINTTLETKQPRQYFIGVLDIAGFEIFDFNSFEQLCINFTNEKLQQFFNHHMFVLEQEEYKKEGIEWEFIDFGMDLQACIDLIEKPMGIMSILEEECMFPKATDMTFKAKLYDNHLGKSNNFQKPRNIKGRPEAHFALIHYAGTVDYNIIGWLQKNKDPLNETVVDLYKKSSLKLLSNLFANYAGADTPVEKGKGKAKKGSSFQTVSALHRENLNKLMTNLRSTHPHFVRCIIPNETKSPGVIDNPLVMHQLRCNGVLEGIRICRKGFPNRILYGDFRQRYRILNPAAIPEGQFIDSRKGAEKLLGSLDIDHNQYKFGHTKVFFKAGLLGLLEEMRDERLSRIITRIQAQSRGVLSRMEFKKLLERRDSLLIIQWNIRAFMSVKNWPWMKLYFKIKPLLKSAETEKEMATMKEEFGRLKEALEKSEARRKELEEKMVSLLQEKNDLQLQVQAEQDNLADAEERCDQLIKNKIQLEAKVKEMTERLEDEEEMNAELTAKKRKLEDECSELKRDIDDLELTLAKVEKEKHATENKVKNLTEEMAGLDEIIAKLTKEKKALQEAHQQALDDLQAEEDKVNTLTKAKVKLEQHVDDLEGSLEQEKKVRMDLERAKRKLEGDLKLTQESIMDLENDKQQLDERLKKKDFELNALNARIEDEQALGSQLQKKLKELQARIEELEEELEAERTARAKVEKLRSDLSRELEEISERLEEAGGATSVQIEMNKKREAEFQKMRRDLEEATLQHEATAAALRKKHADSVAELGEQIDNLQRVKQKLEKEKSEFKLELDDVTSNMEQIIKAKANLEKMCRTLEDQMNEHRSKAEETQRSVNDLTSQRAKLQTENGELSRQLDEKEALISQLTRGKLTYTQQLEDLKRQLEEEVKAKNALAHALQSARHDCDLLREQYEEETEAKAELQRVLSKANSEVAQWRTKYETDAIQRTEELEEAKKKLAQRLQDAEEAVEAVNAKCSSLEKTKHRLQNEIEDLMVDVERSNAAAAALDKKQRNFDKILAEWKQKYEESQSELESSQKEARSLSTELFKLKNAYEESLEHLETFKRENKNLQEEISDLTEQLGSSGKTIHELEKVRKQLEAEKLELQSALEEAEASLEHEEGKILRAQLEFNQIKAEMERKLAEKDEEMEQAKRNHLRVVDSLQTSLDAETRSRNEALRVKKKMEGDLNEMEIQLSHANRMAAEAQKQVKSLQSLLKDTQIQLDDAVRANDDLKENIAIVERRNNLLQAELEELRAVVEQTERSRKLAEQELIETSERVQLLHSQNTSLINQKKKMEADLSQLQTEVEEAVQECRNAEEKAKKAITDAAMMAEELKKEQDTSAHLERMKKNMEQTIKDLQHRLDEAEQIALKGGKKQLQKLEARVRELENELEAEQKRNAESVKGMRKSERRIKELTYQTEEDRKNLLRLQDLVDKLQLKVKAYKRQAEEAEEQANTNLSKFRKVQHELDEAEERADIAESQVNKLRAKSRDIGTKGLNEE
Test: SDS-PAGE titration/co-precipitation binding isotherm

B1: Myosin regulatory light chain 2, ventricular (protein)
chain: APKKAKKRAGGANSNVFSMFEQTQIQEFKEAFTIMDQNRDGFIDKNDLRDTFAALGRVNVKNEEIDEMIKEAPGPINFTVFLTMFGEKLKGADPEETILNAFKVFDPEGKGVLKADYVREMLTTQAERFSKEEVDQMFAAFPPDVTGNLDYKNLVHIITHGEEKD
Kd: 3.2 µM

B2: Myosin regulatory light chain 2, ventricular (protein)
chain: B1 chain with D93A
Kd: 4.9 µM
